Experimental data published in paper PMC8809985 (2021).

Assays:
[1] = molecular target: T1, recombinant human tumor necrosis factor alpha (human, UniProt P01375 77-233); test: BLI
[2] = molecular target: T1, recombinant human tumor necrosis factor …; test: BLI; remark: listed apart in the source

T1 sequence (P01375 77-233): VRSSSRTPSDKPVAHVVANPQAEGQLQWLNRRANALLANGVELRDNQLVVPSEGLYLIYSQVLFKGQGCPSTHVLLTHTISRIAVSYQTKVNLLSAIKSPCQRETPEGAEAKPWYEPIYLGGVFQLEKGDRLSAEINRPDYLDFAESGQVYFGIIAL

B1: Haidalimumab (antibody, V domains shown)
VH: EVQLVESGGGLVQPGGSLRLSCAASGFPFSNHWMNWVRQAPGKGLEWVGEIRSKSMNSATHYAESVKGRFTISRDDSKNSLYLQMNSLKTEDTAVYYCARNYYGSTYDHWGQGTLVTVSS
VL: EIVLTQSPDFQSVTPKEKVTITCRASQFVGYSIHWYQQKPDQSPKLLIKYASESRSGVPSRFSGSGSGTDFTLTINSLEAEDAATYYCQQSHSWHFTFGQGTKLEIK
koff [1]: 0.00023 s⁻¹
Kd [2]: 0.774 nM
